Where a chain is given by its changes, count along the chain named.
B1: V191: HRG-β1 variant with V191 mutated to alanine (protein, UniProt Q02297 1-640, looked up, variant V191A)
chain: MSERKEGRGKGKGKKKERGSGKKPESAAGSQSPALPPRLKEMKSQESAAGSKLVLRCETSSEYSSLRFKWFKNGNELNRKNKPQNIKIQKKPGKSELRINKASLADSGEYMCKVISKLGNDSASANITIVESNEIITGMPASTEGAYVSSESPIRISVSTEGANTSSSTSTSTTGTSHLVKCAEKEKTFCANGGECFMVKDLSNPSRYLCKCQPGFTGARCTENVPMKVQNQEKAEELYQKRVLTITGICIALLVVGIMCVVAYCKTKKQRKKLHDRLRQSLRSERNNMMNIANGPHHPNPPPENVQLVNQYVSKNVISSEHIVEREAETSFSTSHYTSTAHHSTTVTQTPSHSWSNGHTESILSESHSVIVMSSVENSRHSSPTGGPRGRLNGTGGPRECNSFLRHARETPDSYRDSPHSERYVSAMTTPARMSPVDFHTPSSPKSPPSEMSPPVSSMTVSMPSMAVSPFMEEERPLLLVTPPRLREKKFDHHPQQFSSFHHNPAHDSNSLPASPLRIVEDEEYETTQEYEPAQEPVKKLANSRRAKRTKPNGHIANRLEVDSNTSSQSSNSESETEDERVGEDTPFLGIQNPLAASLEATPAFRLADSRTNPAGRFSTQEEIQARLSSVIANQDPIAV
B2: V199: HRG-β1 variant with V199 mutated to alanine (protein)
chain: SHLVKCAEKEKTFCVNGGECFMAKDLSNPSRYLCKCPNEFTGDRCQNYVMASFYKHLGIEFMEAEELY
modifications: left off: large carriers; small tags and cut ends
notes: HRG-β1 variant with V199 mutated to alanine
B3: K200: HRG-β1 variant with K200 mutated to alanine (protein)
chain: B2 chain with A23V, K24A
modifications: left off: large carriers; small tags and cut ends
notes: HRG-β1 variant with K200 mutated to alanine
B4: D201: HRG-β1 variant with D201 mutated to alanine (protein, UniProt Q02297 1-640, looked up, variant D201A)
chain: B1 chain with A191V, D201A
B5: N204: HRG-β1 variant with N204 mutated to alanine (protein, UniProt Q02297 1-640, looked up, variant N204A)
chain: B1 chain with A191V, N204A
B6: S177: HRG-β1 variant with S177 mutated to alanine (protein)
chain: B2 chain with S1A, A23V
modifications: left off: large carriers
notes: HRG-β1 variant with S177 mutated to alanine
B7: P205: HRG-β1 variant with P205 mutated to alanine (protein)
chain: B2 chain with A23V, P29A
modifications: left off: large carriers; small tags and cut ends
notes: HRG-β1 variant with P205 mutated to alanine
B8: L209: HRG-β1 variant with L209 mutated to alanine (protein, UniProt Q02297 1-640, looked up, variant L209A)
chain: B1 chain with A191V, L209A
B9: E215: HRG-β1 variant with E215 mutated to alanine (protein)
chain: B2 chain with A23V, E39A
modifications: left off: large carriers; small tags and cut ends
notes: HRG-β1 variant with E215 mutated to alanine
B10: F229: HRG-β1 variant with F229 mutated to alanine (protein)
chain: B2 chain with A23V, F53A
modifications: left off: large carriers; small tags and cut ends
notes: HRG-β1 variant with F229 mutated to alanine
B11: E184: HRG-β1 variant with E184 mutated to alanine (protein, UniProt Q02297 1-640, looked up, variant E184A)
chain: B1 chain with E184A, A191V
B12: T188: HRG-β1 variant with T188 mutated to alanine (protein, UniProt Q02297 1-640, looked up, variant T188A)
chain: B1 chain with T188A, A191V

Tested on: ErbB-3 or ErbB-4 receptors
Assay: Alanine scan of the HRG-β1 EGF-like domain by phage ELISA (FIG. 2)
Assay type: binding
Conditions: ratio of variant EC50 to wild-type EC50
Experimental: The X axis lists each amino acid that was changed to alanine and its position. […] The EC50 was calculated as the concentration of soluble receptor fusion required to displace 50% of the total amount of phage bound to immobilized receptor fusion. ErbB-3 binding results are shown with black bars, and ErbB-4 binding results are shown with white bars.
Alanine-substituted variants were generated by site-directed mutagenesis according to Kunkel et al., Methods Enzymol. 154:367-82 (1987) (hereinafter “Kunkel mutagenesis”), using uracil-containing single-stranded DNA template prepared from pHRG2-g3. pHRG2-g3, which is described in Example 1, expressed HRG-β1 177-244 fused to pIII 247. A series of oligonucleotides was used to generate a series of constructs that expressed a series of variants in which consecutive residues were mutated to alanine. Phage stocks were prepared from these constructs as described in Example 1, except that PEG(8000) was used to precipitate the phage. The affinities of the alanine-substituted variants for ErbB-3-Ig and ErbB-4-Ig was determined by phage ELISA as described in Example 1.

Molecule	effect of substitution with alanine on affinity for the ErbB-3 or ErbB-4 receptors
B1	two and five
B2	two
B3	two
B4	two
B5	two
B6	two and five
B7	two
B8	two and five
B9	two
B10	two and five
B11	two
B12	two and five

From patent US7563583B2, “Heregulin variants” (Genentech, Inc., priority 1997, dated 2009)
